Where two headings read alike, the source gives them in different places. No end group written: not given here.
Legend:
human Nav1.8 = target: T1, human Nav1.8 (Homo sapiens, UniProt Q9Y5Y9, DEL1030-1030/M1713V); assay: Whole-cell voltage-clamp of INa1.8 in HEK1.8 stable cells; type: cell-based; parameters: sensitivity of INa1.8 to channel blocker: dose or concentration left out as unconfirmed
T1 construct: cell line made in house

hNav1.7 = target: T2, hNav1.7 (Homo sapiens, UniProt Q15858); assay: Whole-cell voltage-clamp of INa1.7 in HEK1.7 cells after plasmid transfection; type: cell-based; details: for INa1.7 in presence of NaviPA1 mutants: 3-4 days after transfection
T2 construct: the Nav1.7 antibody detected full-length Nav1.7 only in HEK1.7 cells
T2 sequence (Q15858 whole entry): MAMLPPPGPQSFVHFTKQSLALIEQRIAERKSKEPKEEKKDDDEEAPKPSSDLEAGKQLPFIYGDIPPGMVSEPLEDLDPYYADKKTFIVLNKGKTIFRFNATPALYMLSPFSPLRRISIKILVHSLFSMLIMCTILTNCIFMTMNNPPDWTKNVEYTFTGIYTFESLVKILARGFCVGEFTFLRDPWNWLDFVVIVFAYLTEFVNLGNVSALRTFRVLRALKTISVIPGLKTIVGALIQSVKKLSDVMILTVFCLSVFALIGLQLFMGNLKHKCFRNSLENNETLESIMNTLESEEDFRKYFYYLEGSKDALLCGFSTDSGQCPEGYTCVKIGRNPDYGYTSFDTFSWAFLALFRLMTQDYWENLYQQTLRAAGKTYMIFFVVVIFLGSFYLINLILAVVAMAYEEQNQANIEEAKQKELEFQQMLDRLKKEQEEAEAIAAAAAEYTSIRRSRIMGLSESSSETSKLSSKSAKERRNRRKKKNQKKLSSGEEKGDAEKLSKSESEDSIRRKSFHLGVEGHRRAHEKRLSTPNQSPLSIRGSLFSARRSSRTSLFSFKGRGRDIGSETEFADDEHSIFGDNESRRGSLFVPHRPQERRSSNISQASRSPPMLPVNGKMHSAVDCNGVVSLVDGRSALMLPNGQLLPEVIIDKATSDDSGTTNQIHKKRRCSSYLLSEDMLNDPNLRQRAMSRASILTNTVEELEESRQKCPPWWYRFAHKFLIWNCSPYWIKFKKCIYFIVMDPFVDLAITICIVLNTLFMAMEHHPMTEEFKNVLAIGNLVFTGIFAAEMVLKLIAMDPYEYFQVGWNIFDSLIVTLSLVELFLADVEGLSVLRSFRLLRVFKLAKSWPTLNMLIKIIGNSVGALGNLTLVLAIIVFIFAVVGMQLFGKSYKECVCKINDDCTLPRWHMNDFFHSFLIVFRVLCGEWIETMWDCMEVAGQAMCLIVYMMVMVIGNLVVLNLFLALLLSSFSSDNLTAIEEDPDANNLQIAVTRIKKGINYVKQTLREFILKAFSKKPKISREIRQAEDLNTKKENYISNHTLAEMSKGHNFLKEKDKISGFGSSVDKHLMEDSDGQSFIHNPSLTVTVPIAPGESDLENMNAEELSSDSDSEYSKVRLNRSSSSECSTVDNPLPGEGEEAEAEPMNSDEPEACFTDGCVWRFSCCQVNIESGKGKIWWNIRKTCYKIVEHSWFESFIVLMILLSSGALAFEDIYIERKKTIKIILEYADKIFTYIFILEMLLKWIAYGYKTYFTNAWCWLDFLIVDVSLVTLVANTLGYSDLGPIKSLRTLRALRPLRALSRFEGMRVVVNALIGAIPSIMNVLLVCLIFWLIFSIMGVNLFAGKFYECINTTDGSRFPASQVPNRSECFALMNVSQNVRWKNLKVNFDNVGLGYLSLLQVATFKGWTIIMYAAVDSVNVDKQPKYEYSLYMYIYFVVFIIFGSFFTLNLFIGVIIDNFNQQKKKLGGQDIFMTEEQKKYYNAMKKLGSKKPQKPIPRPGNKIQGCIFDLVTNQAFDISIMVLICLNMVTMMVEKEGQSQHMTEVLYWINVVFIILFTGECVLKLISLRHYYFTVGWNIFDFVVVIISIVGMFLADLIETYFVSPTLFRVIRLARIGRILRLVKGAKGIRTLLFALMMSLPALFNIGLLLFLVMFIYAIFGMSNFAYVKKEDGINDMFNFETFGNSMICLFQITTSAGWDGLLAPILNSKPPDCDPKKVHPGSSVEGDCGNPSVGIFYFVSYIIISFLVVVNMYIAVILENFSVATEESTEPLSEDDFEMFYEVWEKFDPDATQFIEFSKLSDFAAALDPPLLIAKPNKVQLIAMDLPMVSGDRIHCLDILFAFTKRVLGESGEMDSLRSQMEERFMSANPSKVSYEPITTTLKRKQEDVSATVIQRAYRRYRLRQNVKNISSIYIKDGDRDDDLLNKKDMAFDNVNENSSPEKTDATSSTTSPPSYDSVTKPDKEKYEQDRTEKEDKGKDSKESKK
Experimental: The stable expression of each construct was verified by transfection into HEK293 cells stably expressing human wild-type Nav1.7 (HEK1.7 cells), followed by immunoblots (IB). Representative tests for GFPlinker (GFP), 1.7iPAs (1, 2, 3, 4, 6) were shown (FIG. 1H, I). Initial screening experiments by whole-cell voltage-clamp of INa1.7 in HEK1.7 cells, transfected with plasmids encoding nine 1.7iPAs (1.7iPA1-9), were performed to characterize the INa1.7. The presence of 9 different 1.7iPAs in HEK1.7 cells on peak INa1.7 density (3 days after transfection) were summarized in FIG. 1F, in which the data points recorded by at least 2 replicates were combined. […] These experiments thus identified 1.7iPA1 and 1.7iPA4 (both derived from ICL1), as well as 1.7iPA6 (from ICL2), as effective iPAs (>50% INa1.7 inhibition). We next focused on the validation of INa1.7 inhibition and channel kinetics by 1.7iPA1, 4, and 6 on HEK1.7 cells in new experiments. […] The 1.7iPA1 peptide is polyampholytic, enriched with 38.6% positively charged arginine or lysine (17/44), 23% of serine (10/44), 14% acidic residues (6/44); and is highly conserved between rodents and humans (FIG. 2F).
EP recordings were performed, as we described previously with minor modifications at room temperature (22~25° C.) (10, 12), in a blind manner where the electrophysiologist was not aware of the treatment. Patch pipettes 0.9-2.5M2 resistance were formed from borosilicate glass (King Precision Glass Co., Claremont, CA) and fire polished. Recordings were made with an […] amplifier (Molecular Devices, Downingtown, PA). Signals were filtered at 5 kHz and sampled at 20 and 50 kHz (adopted from literature) (13-22) with a Digidata 1440A digitizer and pClamp10 software (Molecular Devices, San Jose, CA). Series resistance (3-5M (2) was monitored before and after the recordings, and data were discarded if the resistance changed by 20%. After achieving the whole-cell recording, capacitance (Cm) and series resistance (Rs) were compensated accordingly.
Sodium channel current (INa) recording in cultured cell lines. Whole-cell voltage-clamp to recording INa was performed in HEK1.7, HEK1.1, HEK1.3, HEK1.6, HEK1.5, HEK1.8, CHO1.8, NG108-15 cells, and F11cells in current-density (I-V) and fast-inactivation voltage protocols. External solution consists of the following (in mM): 110 NaCl, 20 tetraethylammonium-Cl, […]), 0.1 CaCl2, 5 MgCl2, 10 HEPES and 5.56 mM glucose (pH 7.4, 310-315 mosM/L). The internal pipette solution consisted of (in mM): 10 NaCl, 130 CsCl, 5 MgCl2, 5 EGTA, 2.5 Na2+ATP and 10 HEPES (pH 7.2). After formation of a tight seal (maximal leak amplitude <150 pA), membrane resistance and capacitance were determined. The voltage dependence of activation was assessed from holding potential using 50 ms pulses (test-pulse) to a range of test potentials from −100 mV to +50 mV in 5 mV or 10 mV incremental steps with an interval of 5 s. Current density was calculated by normalizing maximal peak currents with cell capacitance. The voltage dependence of steady-state fast inactivation was measured using a two-step protocol. A 500 ms pre-pulse with various potentials ranging from Vhold to +10 mV in 5 or 10 mV incremental steps was used to inactivate the channels. This pre-pulse was immediately followed by a 40 ms test-pulse at 0 mV to determine the remaining fraction of available channels. Inward current measured during the test-pulse to 0 mV was normalized to the cell's maximum test-pulse inward current. To determine the conductance-voltage (I-V) relationships of voltage-dependent activation, the peak current densities during each voltage command step were fitted to a smooth curve with a Boltzmann equation: I=Gmax (V-Erev)/[(1+exp [(V−V50)/k))], which provided the maximum conductance (Gmax). Normalized activation curves were fitted with a Boltzmann equation G/Gmax=1/(1+exp (V50-Vm)/k), where G was calculated as follows: G=I/(Vm−Erev). […]

[1] = tested on: mechanical hypersensitivity; details: after i.p. injection; cited from earlier work
DRG neurons = assay: Whole-cell current-clamp of dissociated DRG neurons from TNI rats (excitability); type: cell-based, rat; details: transduced small/medium-sized DRG neurons, male TNI rats, compared to sham
From the text: Increased excitability of nociceptive PSNs is a fundamental process underlying neuropathic pain (46). We therefore examined whether AAV6-NaviPA1 treatment reverses the enhanced neuronal excitability of nociceptive PSNs following TNI (12, 47), using the whole-cell current-clamp AP recording of DRG dissociated neurons from rats after the treatment protocol shown in FIG. 7B. […] We therefore recorded from randomly chosen small/medium-sized neurons (<35 μm in diameter) (51) in the cultures from dissociated L4 and L5 DRG. Transduced neurons were identified by GFP fluorescence, and excitability was evaluated by measuring rheobase and repetitive action potential (AP) firing during 250 ms current pulses stepping from 100 pA and 280 pA current injection. […]
Whole-cell current-clamp recording on dissociated DRG neurons (male rats). […] The membrane input resistance was calculated by dividing the ending amplitude of steady-state hyperpolarizing voltage deflection by the injected current (27). […] The baseline potentials were recorded for 20 ms before the stimulus pulses were injected into the neurons. […] AP frequency was determined by quantifying the number of APs elicited in response to depolarizing current injections (250 ms).

Nav1.7 = target: T3, Nav1.7 (Homo sapiens, UniProt Q15858); assay: Immunoblot of membrane Nav1.7 in fractionated HEK1.7 cells (intracellular trafficking); type: cell-based; details: fractionated HEK1.7 cells after transfection
T3 construct: the Nav1.7 antibody detected full-length Nav1.7 only in HEK1.7 cells
T3 sequence (Q15858 whole entry): as above
Experimental: Since Nav1.7 is an integral membrane protein, we therefore tested whether NaviPA1 expression in the HEK1.7 cells would interrupt Nav1.7 intracellular trafficking. […] Studies have shown that IDRs in the membrane proteins engage in interactions with the membrane (33). To test whether NaviPA1 interference of Nav1.7 might be via […] of Nav1.7, GFP affinity pull-down by ChromoTek GFP-Trap (ChromoTek, Rosemont, IL) was performed after transfection of GFP-NaviPA1 in HEK1.7 cells using GFPlinker (GFP) and GFP-1.7iPA2 (FIG. 1) as the controls. Cell lysates were prepared by a lysis buffer containing 0.5% Nonidet p40, a ‘non-denaturing’ mild lysis detergent, for preventing interaction breaking and maximizing the retention of NaviPA1-protein interactions (34). […] It has been reported that polybasic IDRs in transmembrane proteins preferably bind to negatively charged lipids (36, 37). We reasoned that NaviPA1 might be able to bind phosphoinositides, and this hypothesis was tested by using phosphatidylinositol phosphate (PIP) strips (Echelon PIP Strip, Salt Lake City, UT). […]
NaviPA1 is a polybasic arginine/lysine and serine-enriched peptide. […] However, the full-length Nav1.7 membrane integration, which is determined by its TM domains but not intracellular sequences, was unaffected in the presence of NaviPA1 (FIG. 6F). […]

[2] = HEK1.7 cells, initial screening

T1 sequence (Q9Y5Y9 with tags, fused parts or gaps DEL1030-1030/M1713V): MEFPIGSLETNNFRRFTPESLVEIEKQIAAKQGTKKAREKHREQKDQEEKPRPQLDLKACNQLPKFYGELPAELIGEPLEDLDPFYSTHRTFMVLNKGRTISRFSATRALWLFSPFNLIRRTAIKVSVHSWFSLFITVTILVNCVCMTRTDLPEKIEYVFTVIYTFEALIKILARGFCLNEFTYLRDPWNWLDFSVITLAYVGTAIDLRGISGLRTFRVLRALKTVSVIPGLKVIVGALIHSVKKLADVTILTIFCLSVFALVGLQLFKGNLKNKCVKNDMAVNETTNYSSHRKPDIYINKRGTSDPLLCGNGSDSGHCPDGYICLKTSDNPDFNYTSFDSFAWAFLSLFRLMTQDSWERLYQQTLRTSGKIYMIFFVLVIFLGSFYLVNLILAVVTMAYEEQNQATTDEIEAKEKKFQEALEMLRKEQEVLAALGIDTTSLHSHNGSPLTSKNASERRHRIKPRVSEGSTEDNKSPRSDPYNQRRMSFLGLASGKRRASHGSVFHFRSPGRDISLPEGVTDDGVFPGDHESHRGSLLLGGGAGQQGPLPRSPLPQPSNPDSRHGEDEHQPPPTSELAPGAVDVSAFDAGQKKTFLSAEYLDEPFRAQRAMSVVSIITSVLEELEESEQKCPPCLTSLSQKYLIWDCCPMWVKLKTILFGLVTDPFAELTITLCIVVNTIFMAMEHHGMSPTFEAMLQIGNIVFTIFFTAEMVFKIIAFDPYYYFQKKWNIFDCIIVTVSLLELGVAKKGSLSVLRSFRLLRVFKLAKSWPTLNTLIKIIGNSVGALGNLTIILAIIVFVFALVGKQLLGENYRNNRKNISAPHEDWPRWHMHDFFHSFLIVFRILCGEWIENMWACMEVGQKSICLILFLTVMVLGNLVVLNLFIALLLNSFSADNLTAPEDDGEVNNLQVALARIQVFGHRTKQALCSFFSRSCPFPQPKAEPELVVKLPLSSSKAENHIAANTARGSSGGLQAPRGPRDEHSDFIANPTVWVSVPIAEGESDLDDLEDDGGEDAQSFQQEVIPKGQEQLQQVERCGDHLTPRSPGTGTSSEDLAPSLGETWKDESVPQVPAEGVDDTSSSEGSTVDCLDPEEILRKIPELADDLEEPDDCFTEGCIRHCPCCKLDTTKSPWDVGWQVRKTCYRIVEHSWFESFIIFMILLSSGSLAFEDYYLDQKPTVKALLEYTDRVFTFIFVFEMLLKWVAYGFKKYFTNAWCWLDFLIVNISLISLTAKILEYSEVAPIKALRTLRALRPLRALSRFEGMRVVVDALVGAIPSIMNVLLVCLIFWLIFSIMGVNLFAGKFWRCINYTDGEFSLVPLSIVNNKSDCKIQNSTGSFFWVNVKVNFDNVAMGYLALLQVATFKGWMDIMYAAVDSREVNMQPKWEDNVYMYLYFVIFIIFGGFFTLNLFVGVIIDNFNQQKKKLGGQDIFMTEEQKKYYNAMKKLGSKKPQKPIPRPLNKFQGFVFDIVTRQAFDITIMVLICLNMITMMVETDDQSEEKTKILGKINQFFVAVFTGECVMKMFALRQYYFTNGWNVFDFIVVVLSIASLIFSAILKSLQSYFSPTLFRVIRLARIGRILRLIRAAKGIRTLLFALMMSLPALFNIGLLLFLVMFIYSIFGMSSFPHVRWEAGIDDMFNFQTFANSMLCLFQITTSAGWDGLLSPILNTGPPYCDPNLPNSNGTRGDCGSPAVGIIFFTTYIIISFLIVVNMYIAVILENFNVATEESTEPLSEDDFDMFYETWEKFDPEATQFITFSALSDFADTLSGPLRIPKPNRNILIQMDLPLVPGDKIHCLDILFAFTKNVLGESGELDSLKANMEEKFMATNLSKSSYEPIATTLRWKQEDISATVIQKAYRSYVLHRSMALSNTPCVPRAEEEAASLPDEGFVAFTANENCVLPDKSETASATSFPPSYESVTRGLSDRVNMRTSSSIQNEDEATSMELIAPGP

COc1cc(NC(=O)c2ccc(-c3ccc(Cl)cc3)o2)cc(OC)c1 [A803467, reference compound]
INa1.8 inhibition (human Nav1.8; 100 nM, HEK1.8 cells): 85% | sensitivity of INa1.8 to channel blocker (human Nav1.8; HEK1.8 cells): sensitive

NC1=N[C@H](O)[C@H]2[C@H]3O[C@]4(O)O[C@@H]([C@@H](O)[C@@]2(N1)[C@@H]4O)[C@]3(O)CO [TTX, tetrodotoxin, reference compound]
Peak INa1.7 (hNav1.7): 2 ± 1 (10) pA/pF | sensitivity of INa1.8 to channel blocker (human Nav1.8): resistant

NCC1(CC(=O)O)CCCCC1 [gabapentin, Gabapentin]
time of maximal reduction of mechanical hypersensitivity [1]: 30 to 60 min

Nav1.7iPA3: inert peptide from N-terminus of Nav1.7 (SEQ ID NO: 3), used as control NP (SEEKAKEHKDEKKDDEEEGPKPSSDLEAGKQ)
Activation V50 (hNav1.7; [2]): 25.4 ± 1.2 (22) mV | Inactivation V50 (hNav1.7; [2]): 61.6 ± 2 (18) mV | Peak INa1.7 (hNav1.7; HEK1.7 cells, initial screening after plasmid transfection, value ± spread, (n) in cell): 118 ± 1 (22) pA/pF | effect on peak INa1.7 density (hNav1.7; compared to sham transfected HEK1.7 cells): no significant effects | rheobase and frequency of evoked APs in neurons from TNI rats (DRG neurons): no significant effects

NaviPA1mt1: GFP-fused NaviPA1 mutant, alanine substitution for ten serine residues (AAKAAKERRNRRKKKKQKMAAGEEKGDDEKLAKAGAEEAIRKKA; also: GFP fusion)
INa1.7 in presence of NaviPA1 mutants (hNav1.7; HEK1.7 cells): comparable to naïve and GFPNP transfected HEK1.7 cells | effect on INa1.8 (human Nav1.8; HEK1.8 cells): did not change | membrane Nav1.7 protein / Nav1.7 membrane integration (Nav1.7): not to impede

NaviPA1mt2: GFP-fused NaviPA1 mutant, alanine substitution for nine arginine or lysine within predicted polybasic NLS (SSKSAKEAANAAAAAAQAMSSGEEKGDDEKLSKSGSEESIRKKS; also: GFP fusion)
INa1.7 in presence of NaviPA1 mutants (hNav1.7; HEK1.7 cells): comparable to naïve and GFPNP transfected HEK1.7 cells | effect on INa1.8 (human Nav1.8; HEK1.8 cells): did not change | membrane Nav1.7 protein / Nav1.7 membrane integration (Nav1.7): not to impede

Source: patent US20260258110A1, “VOLTAGE GATED SODIUM CHANNEL-SPECIFIC PEPTIDE APTAMERS AND USES THEREOF” (The Medical College of Wisconsin, Inc., priority 2023, published 2026)
